For test [1], the target named is HIV-1 Env antigen (BG505 SOSIP.664 gp140-his) (HIV-1 (BG505)) (UniProt Q2N0S6). Nature of the test: SEC-MALS; Fab/antigen mixtures; Fab and HIV Env trimer mixed 3:1, Fab and EGFR or Nkp30 mixed 1:1; Superdex 200 Increase 10/300 GL, PBS with 200 ppm sodium azide, 1 mL/min. On the technique in general: In gel filtration, larger molecules generally elute earlier.
The target is the same in test [2]. Nature of the test: BLI; BLItz; His-tagged antigen captured on Anti-Penta-HIS (HIS1K) biosensor at 25 ng/µL for 300 s; Fab in solution at 4 concentrations; association 180 s, dissociation 300 s in PBS. On the technique in general: Biolayer interferometry detects binding as a change in optical thickness at a sensor tip.

Consider “NC-Cow1 Fab ulCDR-swap variant var1 (ulCDR of NC-Cow2)”, for which the stoichiometry N (commonly a count of units in the complex or per binding partner) in test [1] was 1. Further, the dissociation constant Kd (usually the equilibrium constant for the complex coming apart) in test [2] came to 125 nM.

Source of the values: article PMC12009342.
